Data as given in the supplement of paper PMC10567573.

B1: MYL5 (parent)
chain: DVAGNLDYKALSYVITHGEEKEE
B2: PDZK1 (parent)
chain: FQAKKIPIVSSLADPLDTPPDSKE

Variants of: B1
Experiment: protein stability index of a GFP-peptide fusion (GPS, HEK-293T) (PSI 1-6); higher = more stable
Details: c terminus: native
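Note: lentivirally expressed fusions sorted by FACS into six bins by GFP to DsRed ratio, PSI derived from sequencing read proportions per bin multiplied by bin number.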

Variant	protein stability index
DMAGNLDYKALSYVITHGEEKEE [V2M]	1.87
DVAGNLDYKALSYVITHLEEKEE [G18L]	1.69
DVAGNLDYKALSYVITPGEEKEE [H17P]	1.83
DVAGNLDYKALSYVITHGEEKEM [E23M]	2.22
DVAGNLDYKALSYVIFHGEEKEE [T16F]	3.87
DVAGNLDYKALSYVITHGEEYEE [K21Y]	1.79
AVAGNLDYKALSYVITHGEEKEE [D1A]	2.07
DVAYNLDYKALSYVITHGEEKEE [G4Y]	1.57
NVAGNLDYKALSYVITHGEEKEE [D1N]	2.24
DVAGNLDYKALSYVITRGEEKEE [H17R]	2.25
DVAGNLDYKALSYVITHGEEDEE [K21D]	4.35
DVAGNLDYKALSYVITHGNEKEE [E19N]	3.3
DVARNLDYKALSYVITHGEEKEE [G4R]	2.5
DVAGQLDYKALSYVITHGEEKEE [N5Q]	2.61
TVAGNLDYKALSYVITHGEEKEE [D1T]	2.13
DVAGNLDYKALSYVITHGEEKHE [E22H]	4.65
DVAGNLDYKGLSYVITHGEEKEE [A10G]	2.1
DVAGNLDYKALSYVITHGEESEE [K21S]	1.52
DVAGNLDYKALSYVITHGEEKEA [E23A]	4.11
KVAGNLDYKALSYVITHGEEKEE [D1K]	2.34
DVAGNLDYKALSYVITHGEEKES [E23S]	3.81
DVAGNLDRKALSYVITHGEEKEE [Y8R]	1.75

Variant	protein stability index
DVAGELDYKALSYVITHGEEKEE [N5E]	2.43
DVVGNLDYKALSYVITHGEEKEE [A3V]	1.97
DVAGNLDYKAKSYVITHGEEKEE [L11K]	2.08
DVAGHLDYKALSYVITHGEEKEE [N5H]	1.92
DVAGNLDYKALSYVITHGEEVEE [K21V]	1.54
DVAGNLDYKALSYVITHGEEMEE [K21M]	1.98
DVAGNLDYKALSYVITHGEHKEE [E20H]	2.53
DVAGNLDYKALSYVIVHGEEKEE [T16V]	2.35
DVAGDLDYKALSYVITHGEEKEE [N5D]	2.69
DVAGNLDYKALSYSITHGEEKEE [V14S]	2.31
VVAGNLDYKALSYVITHGEEKEE [D1V]	1.66
DVAGNMDYKALSYVITHGEEKEE [L6M]	1.76
DVAGNLDYKALSYVIDHGEEKEE [T16D]	2.01
DVAENLDYKALSYVITHGEEKEE [G4E]	2.63
DVAGNLDYKALAYVITHGEEKEE [S12A]	1.72
DNAGNLDYKALSYVITHGEEKEE [V2N]	1.75
DVAGNLDYKALSYVITHGEEQEE [K21Q]	4.06
DVAGNLAYKALSYVITHGEEKEE [D7A]	1.89
DVAGNLDYKALSYVITHGEEKEP [E23P]	2.26
DVASNLDYKALSYVITHGEEKEE [G4S]	2.09
DVAGNLDYKALSYVITDGEEKEE [H17D]	2.89
DVAGKLDYKALSYVITHGEEKEE [N5K]	1.97

Variant	protein stability index
DVAGNLKYKALSYVITHGEEKEE [D7K]	3.18
DVAGNLDYKAGSYVITHGEEKEE [L11G]	2.48
DVAGNLDYKALTYVITHGEEKEE [S12T]	3.01
DVAGNLPYKALSYVITHGEEKEE [D7P]	1.83
DVAGNCDYKALSYVITHGEEKEE [L6C]	1.74
DVAGNLDPKALSYVITHGEEKEE [Y8P]	2.05
DVAGNLDYKLLSYVITHGEEKEE [A10L]	1.97
DVAGNLDYKALQYVITHGEEKEE [S12Q]	1.7
DVAGNLDYKALSYVITHNEEKEE [G18N]	2.11
DVAGNLDYKALSYVITHGEEKEY [E23Y]	3.97
DVWGNLDYKALSYVITHGEEKEE [A3W]	3.06
DVAGNLDYKALSYVITHGEEKAE [E22A]	4.23
DVAVNLDYKALSYVITHGEEKEE [G4V]	1.92
DVAGNGDYKALSYVITHGEEKEE [L6G]	1.93
DVAGNLDHKALSYVITHGEEKEE [Y8H]	1.48
DVAGNLDYKALSYVPTHGEEKEE [I15P]	2.16
DVAGNLDYKALSYVITHDEEKEE [G18D]	2.61
DVAGNLDYKALSYVITHGEEKNE [E22N]	4.88
DVAGNLDYKALSYVITHGEQKEE [E20Q]	2.59
DVAGNLDYKALSYVITHPEEKEE [G18P]	1.12
DVAGNLDYKALSYVIWHGEEKEE [T16W]	2.48
DVAGNLDYKALSYVITHGEEKME [E22M]	4.25

Variant	protein stability index
DVAGNLDYKALSYVITKGEEKEE [H17K]	1.79
DVAGTLDYKALSYVITHGEEKEE [N5T]	2.29
DVAGNLDYPALSYVITHGEEKEE [K9P]	1.95
DVAGNLDYKALSYVITHGESKEE [E20S]	1.26
DVAGNLDAKALSYVITHGEEKEE [Y8A]	2.1
DVAGNLDYKALSYVITHSEEKEE [G18S]	1.49
DVAGNLDYKALSYPITHGEEKEE [V14P]	2.48
DVAGNLDYKALNYVITHGEEKEE [S12N]	2.77
DVAGNLDYKELSYVITHGEEKEE [A10E]	2.35
DVAGNLDYKALSYVLTHGEEKEE [I15L]	1.89
DVADNLDYKALSYVITHGEEKEE [G4D]	1.82
DVAGNLDYKALSYVITHGEEKEC [E23C]	4.24
DLAGNLDYKALSYVITHGEEKEE [V2L]	1.78
DVAGNLDYKALSYVITHGENKEE [E20N]	2.19
DVAGNLDYSALSYVITHGEEKEE [K9S]	1.56
DVAGNLDYKALSYGITHGEEKEE [V14G]	2.28
DVAGNLDYKALSYVILHGEEKEE [T16L]	1.27
DVAGNLDYKALSYVITHGEEAEE [K21A]	2.46
DVAGNSDYKALSYVITHGEEKEE [L6S]	1.7
DVPGNLDYKALSYVITHGEEKEE [A3P]	1.83
DVAGNLDYKALSYVITAGEEKEE [H17A]	1.39

Variants of: B2
Experiment: as above
Details: c terminus: a fixed tail appended

Variant	protein stability index
FQAKKIPIVSVLADPLDTPPDSKE [S11V]	3.38
FQAKKIPIVSSYADPLDTPPDSKE [L12Y]	3.75
FQAKKIPIVSSLAEPLDTPPDSKE [D14E]	3.65
FQAKKIPIVSSLAKPLDTPPDSKE [D14K]	3.65
FQAKKIPIVSSLALPLDTPPDSKE [D14L]	3.5
FQAKKIPIVSSLAMPLDTPPDSKE [D14M]	3.55
FQAKKIPIVSSLAQPLDTPPDSKE [D14Q]	3.86
FQAKKIPIVSSLARPLDTPPDSKE [D14R]	3.81
FQAKKIPIVSSLAVPLDTPPDSKE [D14V]	4.1
FQAKKIPIVSSLADALDTPPDSKE [P15A]	3.61
